Measured values as given in patent US7825096B2, “O6-alkylguanine-DNA alkyltransferase inactivators and beta-glucuronidase cleavable prodrugs” (The United States of America as represented by the …, priority 2004, dated 2010).

B1: E. coli β-glucuronidase (Escherichia coli K-12) (protein)
chain: MLRPVETPTREIKKLDGLWAFSLDRENCGIDQRWWESALQESRAIAVPGSFNDQFADADIRNYAGNVWYQREVFIPKGWAGQRIVLRFDAVTHYGKVWVNNQEVMEHQGGYTPFEADVTPYVIAGKSVRITVCVNNELNWQTIPPGMVITDENGKKKQSYFHDFFNYAGIHRSVMLYTTPNTWVDDITVVTHVAQDCNHASVDWQVVANGDVSVELRDADQQVVATGQGTSGTLQVVNPHLWQPGEGYLYELCVTAKSQTECDIYPLRVGIRSVAVKGEQFLINHKPFYFTGFGRHEDADLRGKGFDNVLMVHDHALMDWIGANSYRTSHYPYAEEMLDWADEHGIVVIDETAAVGFNLSLGIGFEAGNKPKELYSEEAVNGETQQAHLQAIKELIARDKNHPSVVMWSIANEPDTRPQGAREYFAPLAEATRKLDPTRPITCVNVMFCDAHTDTISDLFDVLCLNRYYGWYVQSGDLETAEKVLEKELLAWQEKLHQPIIITEYGVDTLAGLHSMYTDMWSEEYQCAWLDMYHRVFDRVSAVVGEQVWNFADFATSQGILRVGGNKKGIFTRDRKPKSAAFLLQKRWTGMNFGEKPQQGGKQ
notes: purchased Sigma type IX-A
B2: bovine liver β-glucuronidase (Bos taurus) (protein)
chain: MLRGSAGAWAVLGPLLWGCGLSLLQGGMLYPRESRSRERKELDGLWSFRADFSDNRRQGFEQQWYRAPLRESGPTLDMPVPSSFNDVGQDGQLRSFVGWVWYEREITLPQRWTEDLGTRVVLRIGSAHYYAIVWVNGVHVLEHEGGHLPFEADISKLVQSGPLSSCRITIAINNTLSPHTLPPGTILYKTDPSMYPKGYFVQNTKFDFFNYAGLHRSVLLYTTPTTYIDDITVTTDMDQDIGLVNYQIIVQGSDHFQVDVSLLDEEGKVMAKGAGAEGQLQVPSAHLWWPYLMHEHPAYLYSLEVKLTAQTAVGPVSDFYTLPVGIRTVAVTKSQFLINGKPFYFRGVNKHEDADIRGKGFDWPLLVKDFNLLRWLGANAFRTSHYPYSEEVLQLCDRYGIVVIDESPGVGIVLVESFSNVSLQHHLEVMEEMIRRDKNHPAVVMWSLANEPASFLKPAGYYFKTLIAHTKALDPSRPVTFVTNTNYEADLGAPYVDIICVNSYYSWYHDYGHMEVIQLQLATQFENWYKAYQKPMIQSEYGADAIEGFHEDPPLMFSEEYQKGLLQQYHVVLDQKRKEYVVGELIWNFADFMTNQSPVRMIGNRKGIFTRQRQPKSAAFLLRERYWKLANETRYQRSAVTSQCVGSGLFTV
notes: bovine liver β-glucuronidase (Sigma type B-10) (10.2 units/mg of protein); purchased Sigma type B-10; host or cells: bovine liver

Legend:
Type in all cases: biochemical
[1] = substrate: O=C(Nc1nc(OCc2ccccc2)c2nc[nH]c2n1)OCc1ccc(O[C@@H]2O[C@H](C(=O)O)[C@@H](O)[C@H](O)[C@H]2O)c([N+](=O)[O-])c1; test: Enzymatic hydrolysis of prodrugs by E. coli β-glucuronidase in MOPS buffer; conditions: other: E. coli β-glucuronidase, 37° C., pH 7.0
Procedure: (§1) The enzymatic hydrolysis of the prodrugs was investigated with both E. coli and bovine liver β-glucuronidase in MOPS buffer at pH 7.0. Prodrugs and p-nitrobenzyl alcohol (HPLC internal standard) were dissolved in the MOPS buffer (pH 7.0) at 37° C. Enzymatic cleavage was initiated by adding 0.2 Fishman units of E. coli β-glucuronidase (Sigma type IX-A) (42.8 units/mg of protein) or 10 Fishman units of bovine liver β-glucuronidase (Sigma type B-10) (10.2 units/mg of protein) to the incubation buffer. Aliquots (100 μL) of the reaction mixture were withdrawn at various times and were mixed with 100 μL of acetonitrile/0.1 M TEAA (6:4) to quench the enzymatic reaction. Prodrug and product concentrations were determined by HPLC. For determination of enzyme kinetic parameters, prodrug solutions at concentrations between 5 and 300 μM were incubated with a fixed amount of enzyme. Aliquots were withdrawn at time intervals varying from 1 to 20 min and the reactions were quenched as described above. Initial reaction velocities were determined at each substrate concentration. Non-linear regression methods were used to determine KM and Vmax values. Data were processed with Prism 3.0 software.

[2] = substrate: O=C(Nc1nc(OCc2ccccc2)c2ncn([C@H]3C[C@H](O)[C@@H](CO)O3)c2n1)OCc1ccc(O[C@@H]2O[C@H](C(=O)O)[C@@H](O)[C@H](O)[C@H]2O)c([N+](=O)[O-])c1; test: as above; conditions: other: E. coli β-glucuronidase, 37° C., pH 7.0
Procedure: as §1

[3] = substrate: O=C(Nc1nc(OCc2ccccc2)c2nc[nH]c2n1)OCc1ccc(O[C@@H]2O[C@H](C(=O)O)[C@@H](O)[C@H](O)[C@H]2O)c([N+](=O)[O-])c1; test: Enzymatic hydrolysis of prodrugs by bovine liver β-glucuronidase in MOPS buffer; conditions: other: bovine liver β-glucuronidase, 37° C., pH 7.0
Procedure: as §1

[4] = substrate: O=C(Nc1nc(OCc2ccccc2)c2ncn([C@H]3C[C@H](O)[C@@H](CO)O3)c2n1)OCc1ccc(O[C@@H]2O[C@H](C(=O)O)[C@@H](O)[C@H](O)[C@H]2O)c([N+](=O)[O-])c1; test: as above; conditions: other: bovine liver β-glucuronidase, 37° C., pH 7.0
Procedure: as §1

| Protein | Km [1] | Vmax [1] | Km [2] | Vmax [2] | Km [3] | Km [4] |
| --- | --- | --- | --- | --- | --- | --- |
| B1 | 17.0 µM | 466000 µmol/mg/h | 41.1 µM | 677000 µmol/mg/h | – | – |
| B2 | – | – | – | – | 244 µM | 362 µM |
